Test results from the supplement of paper PMC11865577.

Key:
Assay in all cases: pull-down binding Z-score (relative to library population); higher = stronger binding
[1] = system: G-clamp-N3 (biotin conjugate); details: RNA library: Library-1 (pre-miRNA loops + repeats)
Procedure, shortened: (§1)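 Streptavidin beads bearing 100 pmol of a biotin-conjugated small molecule were incubated for 60 min at 25 °C with 1 μg of heat-folded, Cy5- or Cy3-end-labelled RNA library in phosphate/NaCl/KCl buffer. Hot SDS eluted the RNA that stayed bound after three washes, and this RNA was hybridised for 20 h at 55.5 °C to a DNA barcode microarray. Binding was expressed as a Z-score against the library mean and standard deviation, after subtraction of a beads-only signal and trimmed averaging of barcoded replicate probes.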

[2] = system: TO-3-N3 (biotin conjugate); details: RNA library: Library-2
Procedure, shortened: as §1

[3] = system: TO-3-N3-2 (biotin conjugate); details: RNA library: Library-2
Procedure, shortened: as §1

TO-N3 (biotin conjugate) = details: RNA library: Library-2
Procedure, shortened: as §1

[4] = system: TO-N3-2 (biotin conjugate); details: RNA library: Library-2
Procedure, shortened: as §1

Sequence | pull-down binding Z-score [1] | pull-down binding Z-score [2] | pull-down binding Z-score [3] | pull-down binding Z-score (TO-N3 (biotin conjugate)) | pull-down binding Z-score [4]
UUGCUCUUUGGUGGAGAUA [hsa-mir-6074] | 0.646 | 0.509 | -0.00756 | 0.505 | 0.241
GGGGUCUUGCUCUAUU [hsa-mir-6088] | 0.123 | 0.523 | 0.136 | 0.572 | 0.111
UUGUCGUUAAAAAUAGCAA [hsa-mir-548n] | 0.889 | -0.497 | -0.149 | -0.847 | -0.863
GGCAUCUAGCACAGGCGGUAGAUGCU [hsa-mir-4486] | 0.983 | -0.546 | -0.34 | -0.481 | -0.132
CUACUAGUUUGUAGUAGUUCGUAGCAG [hsa-mir-3919] | 0.56 | -0.438 | 0.295 | -0.197 | 0.637
GAGACUUUAAAAGCGUCUC [hsa-mir-3926-1] | 0.184 | -0.747 | -0.343 | -0.993 | -1.01
UCUCAAUCCAUUCAUAUUGAAA [hsa-mir-3662] | -1.04 | 0.563 | -0.33 | 0.226 | -0.68
GACAGGGCAGAGGGUUGCGCCCCCUC [hsa-mir-6511b-1_6511b-2_6511a-2_6511a-3_6511a-1_6511a-4] | 1.05 | 0.412 | 0.284 | 0.754 | 1.23
GGCCACCCAGGGAGUAAGUAGCC [hsa-mir-4480] | 0.515 | 2.34 | 0.908 | 2.09 | 1.42
GAUUGGUCUGUGGUCCUCUC [hsa-mir-3615] | 0.109 | -0.569 | -0.217 | -0.565 | 0.498
CCAUGUGGUUGCGAGGUAUGAGUAAAACAUGG [hsa-mir-218-1] | -0.319 | -0.697 | -0.174 | -0.567 | 0.275
GAAGCCGCUCCCACCUGACCCUCACGGCCUC [hsa-mir-3605] | -0.691 | 1.3 | 0.468 | 1.33 | 1.46
AGGCUUGGCACUUGAGGGAAAGCCU [hsa-mir-8059] | 2.67 | 0.451 | 0.0114 | 0.646 | 0.469
GCAGGGACCCCUCCAAGUUGGGGACGGCAGC [hsa-mir-6858] | -0.0891 | 0.172 | 0.0497 | 0.676 | 1.09
CUCUCUGUUGCUCUGAAGGAG [hsa-mir-346] | 1.39 | -0.271 | -0.318 | -0.183 | 0.295
UCCCUUCCUGGACACACAGGAGGAGA [hsa-mir-5680] | -1.27 | -0.738 | -0.8 | -0.874 | -0.56
GUCACCAGCCCUCAUGUACUUGUGAC [hsa-mir-6820] | -1.09 | 0.335 | -0.289 | 0.222 | -0.281
GGUUGUUUAAUUAGGAACCAACU [hsa-mir-190b] | -0.019 | -0.247 | 0.0266 | -0.293 | -0.593
CUCAUUGUUGAAUGGAAUGAGAU [hsa-mir-3145] | 2.58 | -0.527 | -0.319 | -0.571 | 0.348

Sequence | pull-down binding Z-score [1] | pull-down binding Z-score [2] | pull-down binding Z-score [3] | pull-down binding Z-score (TO-N3 (biotin conjugate)) | pull-down binding Z-score [4]
CCCACCAUGUACCAGUGGG [hsa-mir-4422] | -1.07 | -0.343 | -0.535 | -0.813 | -0.708
CACGAGAUUGGGUUGUGCAGAGGCUGACACUUG [hsa-mir-5004] | 0.93 | -0.363 | 0.0781 | -0.0226 | 0.63
UUCUCCUUGGGAAAAACAGAGAA [hsa-mir-605] | -0.311 | -0.446 | -0.016 | -0.65 | -0.414
CGGACGUUGCUCUCUACCCCG [hsa-mir-1247] | -0.101 | 0.389 | 0.262 | 0.839 | 1.03
GCCUCCUGGAUCUCUAGGUCUCAGGGC [hsa-mir-6744] | -0.189 | -0.282 | -0.302 | -0.272 | 0.118
CUUGAUUUAAUGUCUAUACAAUUAAG [hsa-mir-124-3] | -0.412 | -0.0185 | -0.0577 | -0.159 | -0.45
GGAGAAGACUUUUCCUUUCCUCC [hsa-mir-4660] | -0.415 | -0.1 | -0.212 | -0.139 | -0.545
AGUGAGGCGUCGGCUGUGUUUCU [hsa-mir-2110] | -0.519 | 0.387 | 0.174 | 0.741 | 1.03
CUUUUAUAUCAAGGCACAUAAAAG [hsa-mir-3910-1] | -1.7 | -0.493 | -0.271 | -0.626 | -1.17
CCAUUAUUGCUACUGUUCAGCAGGUGCUGCUGGUGGUGAUGG [hsa-mir-1260b] | -0.182 | 0.0654 | -0.25 | 0.244 | -0.182
CAAAGACCAGAACUUAAUGGUCUCUG [hsa-mir-4490] | 0.704 | -0.471 | -0.671 | -0.888 | -1.15
GAGUUUGGGCAGCUCAGGCAAACC [hsa-mir-181c] | 0.335 | -0.201 | 0.132 | 0.492 | 1.12
UGGCAAAGACAUAGAUUGUUUAGCUACCCCUUUGCCA [hsa-mir-3119-2] | 0.167 | -0.516 | -0.495 | -0.809 | -0.58
UCUGUUUUAAGUAACAGA [hsa-mir-7705] | 0.244 | -0.812 | -0.214 | -1.32 | -1.85
UCCUGUAGUGUCUUAUAUACAAUACAGUAGGA [hsa-mir-613] | -0.0831 | -0.741 | -0.802 | -0.743 | -0.539
UUUACCAUUACUUUCAAUGGCAAA [hsa-mir-548a-3] | -0.644 | -1.16 | -0.786 | -1.76 | -1.82
GGCAGGGGGAGCUGCAGGGCUAUGGGAGGGGCCCCAGCGUCUGA [hsa-mir-1233-2_1233-1] | 2.96 | 3.54 | 2.98 | 3.66 | 3.08
UUUUUGCAUUACGUUCUAUGGCAAAA [hsa-mir-548g] | 1.18 | -0.297 | -0.00229 | -0.182 | -0.0583
CAGCCCGUGGUGGGG [hsa-mir-3619] | 0.788 | 0.721 | 0.115 | 0.752 | 0.751

Sequence | pull-down binding Z-score [1] | pull-down binding Z-score [2] | pull-down binding Z-score [3] | pull-down binding Z-score (TO-N3 (biotin conjugate)) | pull-down binding Z-score [4]
GACCGUUGGCAUCUUAAUUACCCUC [hsa-mir-532] | -0.675 | -0.448 | -0.339 | -0.233 | 0.318
AGACAGCCUGAGUUGGAGGCUCAUCUUCACUUCUUGCUGUGU [hsa-mir-3168] | -0.917 | 0.0963 | -0.221 | 0.262 | 0.168
CCAAGGCUCUGGGGUCUCACCCUUGG [hsa-mir-6842] | 0.754 | 0.484 | -0.394 | 0.386 | 0.0499
CAGAGGCUGGCUUUCCAAAACUCUG [hsa-mir-1913] | -0.379 | 0.996 | 0.266 | 0.884 | 0.235
AUAAUACGGAUUACGUUGUUA [hsa-mir-137] | -1.89 | -0.188 | -0.139 | 0.148 | -0.0367
GGACAUCCUUCCAUAGUAAAUAAGCGGUGCC [hsa-mir-8064] | -0.584 | -0.38 | 0.131 | -0.0974 | 0.218
AUUGGAUGGAGUCAGGUCUCUAAU [hsa-mir-200b] | 0.359 | -0.126 | 0.101 | 0.26 | 0.568
UCCACCUAGACGGGCCUGGGUCAA [hsa-mir-4698] | -0.781 | 0.349 | -0.0391 | 0.552 | 0.907
GGUCUGAGCCCAUGUGUGGACCUAGGUCUGCUGUUAAACUGACU [hsa-mir-6831] | -0.752 | 0.286 | 0.106 | 0.492 | 0.647
GCCUUUCAACAUAAUGGC [hsa-mir-548w] | 1.21 | -0.0045 | -0.214 | -0.352 | -0.827
GGAGCAGACAGACCCAACCUCAUGCUCC [hsa-mir-6763] | -0.993 | 0.0429 | -0.471 | 0.219 | 0.247
GAAGCCUUGAUCAGAAGCUAGGAAGGCUUC [hsa-mir-4762] | 1.95 | 0.782 | 0.433 | 0.654 | 0.593
AGUUAGAAUUCUUAAGUAUCAAAACUAAAU [hsa-mir-4760] | -1.22 | 0.216 | 0.252 | 0.106 | -0.12
GAAACAUCUUUUAC [hsa-mir-4514] | -0.862 | -0.428 | -0.191 | -0.551 | -0.469
UGUUGGCAGCCCAAGAUGACA [hsa-mir-4686] | -0.568 | 0.375 | -0.0148 | 0.581 | 0.58
UUUUGCAUUUAAAGUAAUGGCCAAA [hsa-mir-548ay] | 2.31 | -0.735 | -0.285 | -0.77 | -0.173
UUUUGCCAUUAAAAGUAAUGACAAAA [hsa-mir-548f-4] | -0.841 | -0.924 | -0.56 | -1.47 | -1.66
ACGUCUGGCCGCGUGCGCAUGU [hsa-mir-3175] | 1.55 | -0.222 | -0.244 | 0.838 | 1.89
GGUGGCAAUCAAGGUCUAGCCACC [hsa-mir-4733] | 1.02 | 0.369 | 0.265 | 0.287 | 0.228
